Here are results for 13 sequences from the DeepSol protein solubility set.

This data set can be described thus: soluble on expression in E. coli; label from the status in PepcDB or PDB records.
For “MAHHHHHHMPNDTLQVKLSQDSLFFPLPFTNATIDNVVQVKNMLPVVQGDPKANVISFKILSRVQNRYSVHPPVGFIGAGEHATIIFSFNPEHVKMAKNPEERELPTEATKDAIHVDFAVVDAPSVQTALAHWVPGSKETKASWEVVADASRFWKQRGQVKENSPITMRYKLRCVFATRNNVPDSLVMCMKEEGGCCKLITDGAAPLPRTRPPMTSSTQPQNTAPPEAPPHRYSESQRTTPTTRSPRSDACCTPCAIGPPGIFTMGPGAAAAASAPSASPPSSAPTQKSKTSAGITCGDITLKSIAEEVLNYKLSYRAVGVLLFLTLLCGLLDQSNLLTWLIAKQ”, the “soluble on expression in E. coli” value is on record as “not soluble”.

“MAHHHHHHMPSWCLIESDPAVFTELIQRFGAQGVAVEEIVQLEQEYLRVHTNVYGLILLFKWKARKEGAATDGVVVPDAPVFFVQQTVNNACATLSIVNILLNHKESIELGEVLGNFLSFTQDMNPYLRGTQVGECDALREAHNSFAPVELFSLDHSVPDAGDAYHFVSFVYKNSAIWELDGLQEGPILASDASDENYRDKLMEVVRKRIRDHSAEDTTGAGQGISFSLMAVVDDPLVLLERRIYEATLQEAPTHYLEEQLNQLTKQRAREKLENQRRRHNYVPMIVELLKALAEKGQLKGILDDALAKKSGQGAKQ”: the “soluble on expression in E. coli” value is on record as “soluble”.

Regarding “MAHHHHHHMPTNAAQALEKLVPGRLLQLADNGTPTIVTPLGNEGSLNALIHAYKGKGYLPYFTHAVKAAQRSLVNELRAAGVEVPNGAEASHLEGVCGVHCRDEASCSHIIPDEHITATLYGEDTDDTRMIVACDPIQTKLRDDCVECFPRVNKVSGWEELVVRVHLFYPNTVPCMSVQDRRARLVTQKQFVPKNARTLQGYHVFHYAKRGSSVRTPHCESMFPYTPKTTESKGFTRENRCTAITVESVFVRDPARQQRPFYAEDAGQARVYFSYLRVDAFVTDDELVEHFPLESMDVAAMPAFTDNRYVEKYHVLVRLYLLAHDQGWTATQPHGCPHPLGDRVGLPVLFRSCATEVIVPDACSHDSQLLLRQRLLPDVEMQVTRFCFRRIVSEVLRQRVVAAAADTPECCIPVVCYMPYSDRVPVFTDKQVGVLARLYPHLGIRRPTSRREWADLSRTLYQHCISLFDILAAVGVPLRDAHGAVIDTDAYVPYTADMADDYFLVIANRPLRDYTCVTNQRWLCEQLLLPDHRPPISARAFAAWVRYWNAMAQLKHELEKQVTLDTVSAHLGLRLPAGKTGQRAACLVNGLVTDAKGGLIFPKLGGRRFRDREHVGALLPGAPVLYSFWVDGKLQFTYVRMPMRFVRGLPLKQVNGQRPVQSVIAAGGAPANRGDGTQRGGGQVGEERRANVAIHA”, the “soluble on expression in E. coli” value is given as “not soluble”.

In the case of “MAHHHHHHMQDSVLLSEAFDASHRPWPNRPERKKGVSPSGRDFNMTLYRMKGCPYCERVEWLLRYHLVPFEIVEVGPLTTKGFPDQRFVQVPQIGLEAVADPNNPHAAEKSVAYVADSQHIIAAISAPLGFTKQLSDPRIMETRKWMMERFQAAGFLAINSTWRDAYTTYPHVTPSHYYYQNPIFHVVGATALYALAKYKVAPRFAAEESATSGFPSMENSLQRDPSAWLAAELSGFATRLSGGCHQLHGGKEPDIADVEMYGLTRIIDAHPRLRSALHEGPLKEWCAAMEAALQKRTHVTKK”, the “soluble on expression in E. coli” value is on record as “not soluble”.

As for “MAHHHHHHMQLMRAVTLKGFGDTDMLQISRIPKAVITRGRDILIKVSAAGVNRADAAQRKGHYLPPKGSSEVLGLEVSGIVEEVGVDVKDFKEGDKVMALLPGGGYAEYAVAHEGSVMHIPQGYSFIEAAAIPEAFLTAWQALKYHGDCCKGQKVLIHAGASGVGTAAAQLVEKYFQATALTTSSESKVEVCKNFASINFTRTPDETGMCFSPKVKRLLGEGAINLVLDSVFGGSYISEDAAVLAKDGRIVVLAFMGGATVHLNCLPLLRQRAHVMFSKLRCQSDDYKQNLVDTFEEAVIPYMNERLIVPVANKTYPLEEVAQAHMRLDDSKAWGKIVLTFNSHLSATSTNPPPTLTA”, the “soluble on expression in E. coli” value is reported as “not soluble”.

Consider “MAHHHHHHMQPVKTAVGIRQGLRRCTQLPNKSFRILHVSPRQLTVSTGGDDILKEQRRLQQHGTCTRNNIFRHGVVCACNLLQGYTISIKTNSLIHHSLNFTGNTKTQASKDTHLSNKLYQTFRIIHLHPPIRINVHQWCIGIQNECMAVILHIHRPMFI”, for which the “soluble on expression in E. coli” value is reported as “not soluble”.

Regarding “MAHHHHHHMQQQPRPVVAQYAYIELLPLRYTGPAPPPAPACMDPTPDEQYRRGVAEKRAALKQKEARRQMSSSGSGMLASLKSAVSQAVMTMEKGAADVSTRTESQVRQLEYQYDCDRFNLHFHELAENGEVLLADYRCSAMHSGLRVNGHVQITPHYLCFLAETTSSIAKTTDAVMGVFVAARHPTSANDEPRNRPVGIKQVIALADIVSIQPSVVLESI”, the “soluble on expression in E. coli” value is recorded as “soluble”.

With “MAHHHHHHMQYNLIGSKINNHYVVDPYVSLLYLKRAYKFLRLLKDSGGEAIILGNKHREVHLEHYFGNVQRKETCSLNILTNVTKRYDLLICTDLPLFYPYMRNVLIPKMLVADGATFVKYKTFLHAFDYFIPLTGEKLDRHLHYVLARRYLSGGELR”, the “soluble on expression in E. coli” value is listed as “not soluble”.

As for “MAHHHHHHMRLHLPGRRDTRTASTGSSPVASLFLQKPIIFRKVAHGSASTILNVKRLELVLLETQSDQGKSEPDIQRLHWLTPHKLHQVHNDRITTATLQKNKVHSGYQFVLHIVQVSLEFLYRQKKAIILQLAERTLHERIFGGAKQLYHHQRAAGGGGK”, the “soluble on expression in E. coli” value is “not soluble”.

“MAHHHHHHMRMRPFTASTAATPTAAGAAPASSMSSPAPLRKARESATGSAGSYFLGSSTFSVYEEMARQLREEGWRRKTEAAIATADFILGDRFRIPYTLLRVERMARSSWFGGTRWVNYFEGSHRLTLKAAMVQLMKEVDTHWATWLPESYAVGGDQLKKADERRALLEALAAAGDDDAVWIVKPSSGAKGRHILLLRASAVPEWLERLPESSKSMYVVQRYVDRPLLLSNGRKFDIRVWALLVSPYSIYAYTQVSCRTASEPYDLSDITNTHVHLTNHCLQKDAAHFGEYEEENEMWLPQLQSYLTSIGKPADLLETRVLPAIKELLVRTLLAVMPEMAVPATEAYKCFQLFGYDMILTEEADVRLLEINGSPGVAERFLTPLVRSMRELLGAGPKDGTGSTTTTRNCDNTSHEGFSENGSSSNSGCASPTSASSSCPGRRRTSHAFSAATSATGATRNWRLEDEGFVLLWRRGDAVPPGLVDVC”: the “soluble on expression in E. coli” value is on record as “not soluble”.

For the sequence “MAHHHHHHMRNIVQKYLQRNSTKLFNRTSVFNLYKKCNFSGYKIYSDGLVHSEFSTELKTVNEVIKMPIYRILDTNGHLLDGHEAPFKDEEVLKIYKDMVEFSIWDEIFYGIQRQGRISFYIVNEGEEGLQFGMGKALSVDDHLYCQYRETGVLLSRGFTYTDILNQLFGTKYDEGKGRQMCICYTKKDLNIHTITTPLGSQLSHAAGCGYALKLKNQKAVAVTYCGDGSSSEGDFYAALNFASVRQSQTMFVCKNNLYAISTSIKDQYRGDGIAPRALALGIESIRVDGNDLFASYLATKKLRDICIQESKPVFIEFMSYRYGHHSTSDDSSLYRPKEENEAWRQEGVHPISRIFLYLKNKNLYSEKEDQEHRKSVKENVLKELKKYESVKRYNIVGGLFEDVYHEEDWNIKEQRENFEQFFKENKHNYDTSKFER”, the “soluble on expression in E. coli” value is “soluble”.

In the case of “MAHHHHHHMRRSLVFPPCHLQEARLLQSQQLFGWYHQTRHFTSLVDRLSTGVARKLSSLTETHMMPLSEKHITEPRRPYPKRPSMQENLAERLAEQRRWRSRVVPQQIILSKDKLYIEFVWSAATLSAAAAREMRQQQNNEEENGDGCTQKRKGISCGSFANDGIIKSEKLMSHRTRFLAEFLRAYSPSTDVIGADALIYGRRGITITDVIPVGNYALRIVFSDGHSGGIYPYEYLFHLGQCKYTKMREYIRRLREKRKSRDPPKRVPSKYVPRGRNAAEGTPKRDKTDDCGHRVAAK”, the “soluble on expression in E. coli” value is reported as “not soluble”.

For the sequence “MAHHHHHHMRRVIHGEVRHHNTDTNNTRIPWDFTMASYEEINNVILPKFPRSRRRSAIIPLLHLAQRQQGGYIPVTAMYKIARICEVPPMQVFETVTFYSMFNRQPVGKYHIQFCVTTPCMLCGCDELVHRTEAYLNVKMHGTTRDGLITLGEMQCLGACVNAPMLVVSDYSRPPHFSYDFVEDLTWDSVKELIENLREGRPFKVGTCREDRRWSEPAGGRTSIFMKEPPKPYCRDLDAKPVQPGASTGGAAKK”, the “soluble on expression in E. coli” value is recorded as “not soluble”.
